Laboratory results as given in US7785825B2, “Compositions and methods for dehydration and cyclization of peptides, synthetic compounds, and lantibiotics” (priority 2004, dated 2010).

Experiments:
LctM = LctM (Lactococcus lactis subsp. lactis, UniProt P37609); test: LctM activity assay: dehydration and cyclization of peptide substrates, read out by MS; format: biochemical, Lactococcus lactis CNRZ 481; conditions: for effect on LctM processing of His6-LctA: ATP analog in place of ATP, EDTA added; for number of dehydrations after incubation with LctM: MALDI-MS / ESI-FTMS of product
Excerpt: For MALDI MS analysis, 1 microL of the assay sample was mixed with 9 microL of sinapinic acid pre-dissolved in MeCN:H2O (2:1) in 0.1% TFA and 1 microL of the mixture was applied on the MALDI target. MALDI MS calcd. […] ESI-FT-MS for the major product: mass calcd.

[1] = system: methicillin-resistant Staphylococcus aureus (MRSA); conditions: cited from earlier work
[2] = target: LctMutAK (Artificial Sequence)
[3] = target: His6-LctA (Lactococcus lactis CNRZ 481)
[4] = target: LctRumA (Artificial Sequence)
[5] = target: MutA (His-tagged mutacin II prepeptide) (Artificial)
[6] = target: LctMutA (Artificial Sequence)
[7] = target: His6-LctA-T48S (Lactococcus lactis CNRZ 481)
[8] = target: T1, protease domain of LctT (GST-Lpd) (Lactococcus lactis subsp. lactis, UniProt P37608); test: Leader cleavage by the LctT protease domain (GST-Lpd); format: biochemical, Lactococcus lactis CNRZ 481; conditions: MALDI-TOF MS
T1 sequence (P37608 whole entry, looked up): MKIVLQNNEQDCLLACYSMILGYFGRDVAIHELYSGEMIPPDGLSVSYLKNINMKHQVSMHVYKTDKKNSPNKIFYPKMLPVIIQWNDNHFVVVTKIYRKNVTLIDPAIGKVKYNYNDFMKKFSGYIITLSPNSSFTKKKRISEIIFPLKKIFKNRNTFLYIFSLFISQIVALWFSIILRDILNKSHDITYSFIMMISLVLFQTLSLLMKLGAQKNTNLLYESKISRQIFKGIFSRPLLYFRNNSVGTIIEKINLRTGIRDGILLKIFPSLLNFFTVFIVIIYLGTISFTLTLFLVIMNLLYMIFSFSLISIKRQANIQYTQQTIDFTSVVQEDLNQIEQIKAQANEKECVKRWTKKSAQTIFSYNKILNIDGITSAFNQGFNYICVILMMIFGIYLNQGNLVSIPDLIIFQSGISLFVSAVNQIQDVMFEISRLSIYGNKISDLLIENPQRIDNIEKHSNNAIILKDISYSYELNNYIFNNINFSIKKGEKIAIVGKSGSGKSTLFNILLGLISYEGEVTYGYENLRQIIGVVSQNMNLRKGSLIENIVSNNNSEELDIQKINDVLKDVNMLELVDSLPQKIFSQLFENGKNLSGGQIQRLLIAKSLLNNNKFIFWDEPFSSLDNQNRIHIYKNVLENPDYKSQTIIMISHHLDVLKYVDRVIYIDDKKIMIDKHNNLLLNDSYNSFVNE
Procedure: Cleavage of His-LctA and His-pro-Lacticin. The unmodified His-LctA substrate was either directly incubated with GST-Lpd or first modified by LctM prior to incubation with the protease. Assay mixtures typically contained substrate (50-500 μg), GST-Lpd (35-70 μg) and a buffer consisting of 200 mM NaPi, pH 7.5, 200 mM Na2SO4 and 5 mM DTT. Assays were incubated at 37° C. for 12 h and analyzed by MALDI-TOF MS. Both unmodified and modified His-LctA were substrates for GST-Lpd as determined by MALDI-TOF MS and sensitivity of indicator strain Lactococcus lactis 117 towards the modified substrate after cleavage. See FIG. 83 which illustrates LctT as a bifunctional protein including the proteolytic domain.

L. lactis CNRZ 117 = test: Bioassay for lantibiotic activity (solid agar diffusion); format: cell-based, Lactococcus lactis; conditions: agar diffusion assay, lacticin 481-sensitive indicator strain L. lactis CNRZ 117
Procedure: The lyophilized assay product (˜0.1 microg) was redissolved in 6 microL of Millipore water. To the solution, 4 microL of a solution of Lys-C in 100 mM Tris, pH 8.5 (0.4 ng/microL) was added and the mixture was incubated at 37° C. for 3 h. The resulting mixture was checked by MALDI-TOF MS. Three fragments were expected and two were observed: calcd, 2310 ([1-21]), 2591 ([22-44]), 2773 ([45-70]); found, 2593 ([22-44]), 2775 ([45-70]).
Inhibitory activity was assayed by the solid agar medium test. A GM17 agar plate was seeded with the test strain by mixing 100 mL of liquid GM17 agar at 50° C. with 1.5 mL of an overnight culture. After agar solidification, wells were created in the medium and the samples were added to the wells. The activity of the starting peptide, LctM-product, and the product and starting peptide treated with Lys-C were determined using a solid agar diffusion bioassay with indicator strain L. lactis CNRZ 117 (See FIG. 5).
FIG. 5 illustrates a bioassay for lantibiotic activity. Small aliquots of the following samples were added in the wells: (1) His6-LctA (SEQ ID NO:4), (2) His6-LctA treated with Lys-C, (3) His6-LctA modified by LctM, (4) His6-LctA modified by LctM and treated with Lys-C, (5) cell free broth of L. lactis CNRZ 117, (6) cell free broth of L. lactis CNRZ 481 containing lacticin 481, (7) 50 mM Tris buffer, pH 8.5, (8) Lys-C in 50 mM Tris buffer, pH 8.5.

Sequence of LctM (P37609 whole entry): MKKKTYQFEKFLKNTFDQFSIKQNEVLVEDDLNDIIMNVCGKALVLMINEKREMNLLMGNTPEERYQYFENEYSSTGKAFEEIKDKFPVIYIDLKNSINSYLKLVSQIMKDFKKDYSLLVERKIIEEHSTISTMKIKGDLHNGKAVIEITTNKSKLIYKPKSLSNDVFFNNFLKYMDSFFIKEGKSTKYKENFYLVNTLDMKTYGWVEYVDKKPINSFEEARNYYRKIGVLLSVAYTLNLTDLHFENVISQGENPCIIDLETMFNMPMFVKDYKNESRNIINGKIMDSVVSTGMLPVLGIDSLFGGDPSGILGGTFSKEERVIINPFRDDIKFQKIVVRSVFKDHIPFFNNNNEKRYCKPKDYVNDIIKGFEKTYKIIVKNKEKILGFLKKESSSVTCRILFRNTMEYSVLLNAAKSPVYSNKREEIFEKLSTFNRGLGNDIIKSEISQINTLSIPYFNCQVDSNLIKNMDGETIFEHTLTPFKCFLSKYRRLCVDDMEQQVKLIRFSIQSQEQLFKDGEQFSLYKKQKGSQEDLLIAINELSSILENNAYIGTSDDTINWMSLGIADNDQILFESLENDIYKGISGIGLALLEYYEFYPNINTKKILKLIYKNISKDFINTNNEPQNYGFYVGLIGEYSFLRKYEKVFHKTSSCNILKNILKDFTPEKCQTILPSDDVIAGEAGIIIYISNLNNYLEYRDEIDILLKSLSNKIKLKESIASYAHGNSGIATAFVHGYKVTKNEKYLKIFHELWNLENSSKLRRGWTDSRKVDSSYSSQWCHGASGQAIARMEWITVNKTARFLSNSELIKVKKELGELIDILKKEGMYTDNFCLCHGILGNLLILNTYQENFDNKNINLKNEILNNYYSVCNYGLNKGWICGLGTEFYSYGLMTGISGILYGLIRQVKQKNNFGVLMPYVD

Nc1ncnc2c1ncn2[C@@H]1O[C@H](COP(=O)(O)OP(=O)(O)NP(=O)(O)O)[C@@H](O)[C@H]1O [AMP-PNP]
effect on LctM processing of His6-LctA (LctM): completely abolished

Nc1ncnc2c1ncn2[C@@H]1O[C@H](COP(=O)(O)OP(=O)(O)CP(=O)(O)O)[C@@H](O)[C@H]1O [AMP-PCP]
effect on LctM processing of His6-LctA (LctM): completely abolished

Nc1ncnc2c1ncn2[C@@H]1O[C@H](CO[P@](=O)(O)O[P@](=O)(O)O[P@@](=O)(O)S)[C@@H](O)[C@H]1O [ATP-gamma-S]
effect on LctM processing of His6-LctA (LctM): less efficient

mersacidin
cytotoxic activity against MRSA [1]: comparable cytotoxic activity

O=C(O)CN(CCN(CC(=O)O)CC(=O)O)CC(=O)O [EDTA]
effect on LctM processing of His6-LctA (LctM): abolished the reaction

His6-LctM (lacticin 481 synthetase LctM with N-terminal His6-tag) (enzyme)
dehydration of the substrate [2]: 4 dehydrations
dehydration and cyclization of the substrate (ESI-FTMS, MS/MS) [3]: > 80%
dehydration of the substrate [4]: 4 dehydrations
dehydration of the substrate [5]: 4 dehydrations
dehydration of the substrate [6]: 4 dehydrations
dehydration of the substrate (MS) [7]: 4 dehydrations

B1: LctMutA: His-tag, LctA leader and mutacin II structural region (peptide)
chain: GSSHHHHHHSSGLVPRGSHMLEMKEQNSFNLLQEVTESELDLILGANRWWQGVVPTVSYECRMNSWQHVFTCC
number of dehydrations after incubation with LctM (LctM): 4
cleavage of the leader by the LctT protease domain [8]: can remove the leader peptide and the His-tag

B2: His6-LctA (peptide)
peptide: GSSHHHHHHSSGLVPRGSHMKEQNSFNLLQEVTESELDLILGAKGGSGVIHTISHECNMNSWQFVFTCCS
antimicrobial activity (zone of inhibition) (L. lactis CNRZ 117): No antimicrobial activity was detected
number of dehydrations after incubation with LctM (LctM): four
substrate converted to M-72 product (LctM; treatment with LctM for 1 hour): more than 80%
cleavage of the leader by the LctT protease domain [8]: substrates

B3: His6-LctA modified by LctM: fully processed product, lacticin 481 fused to its leader peptide (peptide)
peptide: GSSHHHHHHSSGLVPRGSHMKEQNSFNLLQEVTESELDLILGAKGGSGVIHTISHECNMNSWQFVFTCCS
modifications: not fully specified (residues 52, 54, 61, 67, bridges)
antimicrobial activity (zone of inhibition) (L. lactis CNRZ 117): No antimicrobial activity was detected
cleavage of the leader by the LctT protease domain [8]: substrates
